# The RNAGym collection of RNA variant scans (doi:10.1073/pnas.2313332121)
# This sample holds only a part of the variants without activity.
# B1: TPR 5TU (parent)
# chain: GGAUCUUCUCGAUCUAACAAAAAAGACAAAUCUGCCACAAAGCUUGAGAGCAUCUUCGGAUGCAGAGGCGGCAGCCUUCGGUGGCGCGAUAGCGCCAACGUUCUCAACUAUGACACGCAAAACGCGUGCUCCGUUGAAUGGAGUUUAUCAUG
# Variants of: B1
# Assay: polymerase ribozyme fitness, log enrichment relative to wild type (log ratio); higher = more active; in vitro selection for triplet polymerase activity
# Procedure, shortened: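 After PCR construction and transcription, each subunit's mutant library from a heterodimeric triplet polymerase ribozyme was annealed with a biotinylated primer, the partner subunit and triplets. Incubation was frozen, at −7 °C, and extended constructs were gel-excised, bound to streptavidin beads and amplified by RT-PCR, in one selection round done in triplicate. Fitness is the logarithm of a genotype's enrichment divided by that of the wild type, from inverse-variance-weighted replicate averages of Illumina-sequenced inputs and outputs. The base of the logarithm is 2, and genotypes needed ≥10 input reads and ≥1 read per output.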
row,Variant,polymerase ribozyme fitness (log ratio)
1,GGAUCUUCUCGAUCUAACAAAAAAGACAAAUCUGCCACAAAGCUUGAGAGCAACUUCGGAUGCAGAGGCGGCAGCCUUCGGUGGCGUGAUAGCGCCAACGUUCUCAACUAUGACACGCAAAACGCGUGCUCCGUUGAAUGGAGUUUAUCAUG,-0.931
2,GGAUCUUCUCGAUCUAACAAAAAAGACAAAUCUGCCACAAAGCUUGAGAGCAACUUCGGAUGCAGAGGCGGCAGCCUUCGGUGGCGCGAUAGCGCCAACGUUCUCAACUAUGACACGCAAAACGUGUGCUCCGUUGAAUGGAGUUUAUCAUG,-1.28
3,GGAUCUUCUCGAUCUAACAAAAAAGACAAAUCUGCCACAAAGCUUGAGAGCAACUUCGGAUGCAGAGGCGGCAGCCUUCGGUGGCGCGAUAGCGCCAACGUUGUCAACUAUGACACGCAAAACGCGUGCUCCGUUGAAUGGAGUUUAUCAUG,-3.95
4,GGAUCUUCUCGAUCUAACAAAAAAGACAAAUCUGCCACAAAGCUUGAGAGCAACUUCGGAUGCAGAGGCGGCAGCCUUCGGUGGCGCGAUAGAGCCAACGCUCUCAACUAUGACACGCAAAACGUGUGCUCUGUUGAAUUGAGUUUCUCAUG,≤ -4.2
5,GGAUCUUCUCGAUCUAACAAAAAAGACAAAUCUGCCACAAAGCUUGAGAGCAACUUCGGAUGCAGAGGCGGUAGCCUUCGGUGGCGCGAUAGCGCCGACGUUCUCAACUAUGACACGCAAAACGCGUGCUCCGAUGAAUGGAGUUUAUCAUG,-3.33
6,GGAUCUUCUCGAUCUAACAAAAAAGACAAAUCUGCCACAAAGCUUGAGAGCAACUUCGGAUGCAGAGGCGGCAGCCUUCGGUGGCGCGAUAGCGCCAACGUUCUCAACUAUGACACGGAAAACGCGUGCUCCGUUGAAUGGAGUUUAUCAUG,-2.5
7,GGAUCUUCUCGAUCUAACAAAAAAGACAAAUCUGCCACAAAGCUUGAGAGCAACUUCGGAUGUAGAGGCGGCAGCCUUCGGUGGCGCGAUAGCGCCAAGGUUCUCAACUAUGACACGCAAAACGCGUGCUCCGUUGAAUGGAGUUUAUCAUG,-3.81
8,GGAUCUUCUCGAUCUAACAAAAAAGACAAAUCUGCCACAAAGCUUGAGAGCAACUUCGGAUGCAGAGGCGGCAGCCUUCGGUGGCGCGAUAGAGCCAAUGUUCUCAACUAUGACACGCAAAACGCGUGCUCCGUUGAAUGUAGUUUAUCAUG,≤ -4.2
9,GGAUCUUCUCGAUCUAACAAAAAAGACAAAUCUGCCACAAAGCUUGAGAGCAACUUCGGAUGCAGAGGCGGCAGGCUUCGGUGGCGCGAUAGCGCCAACGUUCUCAACGAUGACACGCAAAACGCGUGCUCCGUUGAACGGAGUUUAUCAUG,≤ -4.2
10,GGAUCUUCUCGAUCUAACAAAAAAGACAAAUCUGCCACAAAGCUUGAGAGCAACUUCGGAUGCAGAGGCGGCAGCCUUCGGUGGCGCGAUAGAGCCAACGUUCUAAACUAUGACACGCGAAACGCGUGCUCCGUUGAAUGGAGUUUAUCAUG,≤ -4.2
11,GGAUCUUCUCGAUCUAACAAAAAAGACAAAUCUGCCACAAAGCUUGAGAGCAACUUCGGAUGCAGAGGCGGCAGCCUUCGGUGGCGCGAUAGAGCCAACGUUCUCAACUAUGACACGCAAAACGCGUGCUCCGUUGAAUGGAGUUUAUCAUG,-3.27
12,GGAUCUUCUCGAUCUAACAAAAAAGACAAAUCUGCCACAAAGCUUGAGAGCAACUUCGGAUGCAGAGGCGGCAGCCUUCGGUGGCGCGAUAGCGCUAACGUUCUCAACUAUGACACGCAAAACGCGUGCUCCGUUGAAUGGAGUUUAUCAUG,-1.85
13,GGAUCUUCUCGAUCUAACAAAAAAGACAAAUCUGCCACAAAGCUUGAGAGCAACUUCGGAUGCAGAGGCGGCAGCCUUCGGUGGCGCGAUAGCGCAAACGUUCUCAACUAUGACACGCAAAACGCGUGCUCCGUUGAAUGGAGUUUAUCAUG,-2.37
14,GGAUCUUCUCGAUCUAACAAAAAAGACAAAUCUGCCACAAAGCUUGAGAGCAACUUCGGAUGCAGAGGCGGCAGCCUUCGGUGGCGCGAUAGCGCUAACGUUUUCAACUAUGACACGCAAAACGCGUGCUCCGUUGAAUGGAGUUUAUCAUG,-1.14
15,GGAUCUUCUCGAUCUAACAAAAAAGACAAAUCUGCCACAAAGCUUGAGAGCAACUUCGGAUGCAGAGGCGGCAGCCUUCGGUGGAGCGAUAGCGCCAACGUUCUCAACUAUGACACGCAAAACUCGUGCUCCGUUGAAUGGACUUCAUCAUG,≤ -4.2
16,GGAUCUUCUCGAUCUAACAAAAAAGACAAAUCUGCCACAAAGCUUGAGAGCAACUUCGGAUGCAGAGGUGGCAGCCUUCGGUGGCGCGGUAGCUCUAACGUUCUCAACUAUGACUCGCAAAACGCGUGCUCCGUUGAAUGGAGUUUAGCAGG,≤ -4.2
17,GGAUCUUCUCGAUCUAACAAAAAAGACAAAUCUGCCACAAAGCUUGAGAGCAACUUCGGAUGCAGAGGCGGCAGCCUUCGGUGGUGCGAUAGCGCCAACGUUCUCAACUAUGACACGCAAAACGCGUGCUCCGUUGAAUGGAGUUUAUCAUG,-1.4
18,GGAUCUUCUCGAUCUAACAAAAAAGACAAAUCUGCCACAAAGCUUGAGAGCAACUUCGGAUGCAGAGGCGGCAGCCUUCGGUGGCGCGAUAGCGCCAACGUUCUCAACUAUGACACGCAAAACGCGUGCUCUGUUGAAUGGAGUUGAUCAUG,-3.87
19,GGAUCUUCUCGAUCUAACAAAAAAGACAAAUCUGCCACAAAGCUUGAGAGCAACUUCGGAUGCAGAGGCGGCAGCCUUUGGUGGCGCGGUAGCGCCAACGUUCUCAACUAUGACACGCAAAACGCGUGCUCCGGUGAAUGGAGUUUAUCAUG,≤ -4.2
